Data published in the supplement of paper PMC10567573.

B1: ZBTB22 (parent)
chain: HTGLKPYECGVCAKKFMWRDSFMR

Variants of: B1
Experiment: protein stability index of a GFP-peptide fusion (GPS, HEK-293T) (PSI 1-6); higher = more stable
Conditions: c terminus: a fixed tail appended
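Also: lentivirally expressed fusions sorted by FACS into six bins by GFP to DsRed ratio, PSI derived from sequencing read proportions per bin multiplied by bin number.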

Variant	protein stability index
HTGLKPYECGVCAKKFPWRDSFMR	2.35
HTGLKPYECGVCAKKFYWRDSFMR	1.53
HTGLKPYECGVCAKKFAWRDSFMR	2.39
HTGLKPYECGVCAKKFSWRDSFMR	1.9
HTGLKPYECGVCAKKFCWRDSFMR	2.27
HTGLKPYECGVCAKKFTWRDSFMR	3.13
HTGLKPYECGVCAKKFLWRDSFMR	2.18
HTGLKPYECGVCAKKFRWRDSFMR	1.39
HTGLKPYECGVCAKKFIWRDSFMR	2.8
HTGLKPYECGVCAKKFKWRDSFMR	1.27
HTGLKPYECGVCAKKFQWRDSFMR	1.64
HTGLKPYECGVCAKKFWWRDSFMR	2.45
HTGLKPYECGVCAKKFDWRDSFMR	1.84
HTGLKPYECGVCAKKFMWYDSFMR	2.06
HTGLKPYECGVCAKKFMWLDSFMR	2.82
HTGLKPYECGVCAKKFMWQDSFMR	2.03
HTGLKPYECGVCAKKFMWDDSFMR	1.88
HTGLKPYECGVCAKKFMWADSFMR	2.81
HTGLKPYECGVCAKKFMWKDSFMR	2.88
HTGLKPYECGVCAKKFMWFDSFMR	1.55
HTGLKPYECGVCAKKFMWPDSFMR	4.1
HTGLKPYECGVCAKKFMWCDSFMR	1.59
HTGLKPYECGVCAKKFMWTDSFMR	2.13
HTGLKPYECGVCAKKFMWHDSFMR	2.12

Variant	protein stability index
HTGLKPYECGVCAKKFMWSDSFMR	2.12
HTGLKPYECGVCAKKFMWIDSFMR	1.71
HTGLKPYECGVCAKKFMWMDSFMR	2.01
HTGLKPYECGVCAKKFMWWDSFMR	1.77
HTGLKPYECGVCAKKFMWNDSFMR	2.29
HTGLKPYECGVCAKKFMWEDSFMR	1.58
HTGLKPYECGVCAKHFMWRDSFMR	3.5
HTGLKPYECGVCAKWFMWRDSFMR	1.79
HTGLKPYECGVCAKVFMWRDSFMR	1.77
HTGLKPYECGVCAKTFMWRDSFMR	1.61
HTGLKPYECGVCAKYFMWRDSFMR	2.76
HTGLKPYECGVCAKMFMWRDSFMR	2.88
HTGLKPYECGVCAKDFMWRDSFMR	2.52
HTGLKPYECGVCAKNFMWRDSFMR	2.26
HTGLKPYECGVCAKCFMWRDSFMR	2.1
HTGLKPYECGVCAKSFMWRDSFMR	2.12
HTGLKPYECGVCAKFFMWRDSFMR	2
HTGLKPYECGVCAKIFMWRDSFMR	1.77
HTGLKPYECGVCAKQFMWRDSFMR	2.05
HTGLKPYECGVCAKRFMWRDSFMR	2.86
HTGLKPYECGVCAKGFMWRDSFMR	2.95
HTGLKPYECGVCAKLFMWRDSFMR	1.52
HTGLKPYECGVCAKKPMWRDSFMR	3
HTGLKPYECGVCAKKDMWRDSFMR	2.45

Variant	protein stability index
HTGLKPYECGVCAKKCMWRDSFMR	2.57
HTGLKPYECGVCAKKKMWRDSFMR	1.32
HTGLKPYECGVCAKKYMWRDSFMR	3.36
HTGLKPYECGVCAKKMMWRDSFMR	2.46
HTGLKPYECGVCAKKRMWRDSFMR	2.1
HTGLKPYECGVCAKKIMWRDSFMR	1.6
HTGLKPYECGVCAKKVMWRDSFMR	1.95
HTGLKPYECGVCAKKSMWRDSFMR	3.33
HTGLKPYECGVCAKKQMWRDSFMR	2.16
HTGLKPYECGVCAKKEMWRDSFMR	1.31
HTGLKPYECGVCAKKHMWRDSFMR	1.6
HTGLKPYECGVCAKKNMWRDSFMR	1.39
HTGLKPYECGVCAKKAMWRDSFMR	1.1
HTGLKPYECGVCAYKFMWRDSFMR	3.07
HTGLKPYECGVCACKFMWRDSFMR	2.55
HTGLKPYECGVCAQKFMWRDSFMR	2.53
HTGLKPYECGVCAPKFMWRDSFMR	1.21
HTGLKPYECGVCAEKFMWRDSFMR	1.9
HTGLKPYECGVCATKFMWRDSFMR	2.19
HTGLKPYECGVCADKFMWRDSFMR	1.91
HTGLKPYECGVCALKFMWRDSFMR	1.82
HTGLKPYECGVCAAKFMWRDSFMR	1.26
HTGLKPYECGVCAIKFMWRDSFMR	1.66
HTGLKPYECGVCAFKFMWRDSFMR	1.99

Variant	protein stability index
HTGLKPYECGVCAWKFMWRDSFMR	2.78
HTGLKPYECGVCAKKFMWRISFMR	2.1
HTGLKPYECGVCAKKFMWRHSFMR	2.65
HTGLKPYECGVCAKKFMWRNSFMR	2.48
HTGLKPYECGVCAKKFMWRGSFMR	3.52
HTGLKPYECGVCAKKFMWRASFMR	2.16
HTGLKPYECGVCAKKFMWRSSFMR	2.08
HTGLKPYECGVCAKKFMWRFSFMR	2.08
HTGLKPYECGVCAKKFMWRYSFMR	2.74
HTGLKPYECGVCAKKFMWRQSFMR	1.74
HTGLKPYECGVCAKKFMWRCSFMR	3.48
HTGLKPYECGVCAKKFMWRKSFMR	3.45
HTGLKPYECGVCAKKFMWRVSFMR	1.69
HTGLKPYECGVCAKKFMWRLSFMR	2.27
HTGLKPYECGVCAKKFMWRPSFMR	1.72
HTGLKPYYCGVCAKKFMWRDSFMR	1.3
HTGLKPYMCGVCAKKFMWRDSFMR	2.26
HTGLKPYICGVCAKKFMWRDSFMR	2.78
HTGLKPYPCGVCAKKFMWRDSFMR	2.59
HTGLKPYFCGVCAKKFMWRDSFMR	2.2
HTGLKPYTCGVCAKKFMWRDSFMR	2.61
HTGLKPYLCGVCAKKFMWRDSFMR	1.49
